US20210269521A1 (L AND L BIOPHARMA, published 2021)

What was measured:
[1] = biological target: T1, human TIM-3 extracellular domain-human IgG1 Fc fusion protein (human, UniProt Q8TDQ0 22-199); experiment: ELISA; pH 5.5, 37°C 10 days, against 0 day
T1 construct: Made in house or bought (ACROBiosystems TM3-H5258); also called TIM-3-hFc; not shown: human IgG1 Fc

[2] = biological target: T2, human PD-1 extracellular domain protein expressed in Example 1 (tag not stated) (human, UniProt Q15116 25-170); experiment: ELISA; pH 5.5, 37°C 10 days, against 0 day
T2 construct: extracellular domain; also called PD-1 protein; not shown: human IgG1 Fc or his tag

[3] = biological target: T1, human TIM-3 extracellular domain-human …; experiment: ELISA; pH 5.5, 37°C 7 days, against 0 day
[4] = biological target: T2, human PD-1 extracellular domain protein …; experiment: ELISA; pH 5.5, 37°C 7 days, against 0 day
[5] = biological target: T1, human TIM-3 extracellular domain-human …; experiment: ELISA; 37°C 0 day, against 0 day
[6] = biological target: T2, human PD-1 extracellular domain protein …; experiment: ELISA; 37°C 0 day, against 0 day
[7] = biological target: T1, human TIM-3 extracellular domain-human …; experiment: ELISA; 15 mg/mL in preparation buffer (20 mM His pH 6.0), 37°C 0 day (-80°C)
[8] = biological target: T2, human PD-1 extracellular domain protein …; experiment: as above
[9] = biological target: T1, human TIM-3 extracellular domain-human …; experiment: ELISA; pH 5.5, 0 day, against 0 day
[10] = biological target: T2, human PD-1 extracellular domain protein …; experiment: ELISA; pH 5.5, 0 day, against 0 day
[11] = biological target: T1, human TIM-3 extracellular domain-human …; experiment: ELISA; pH 5.5, 40°C 5 days
[12] = biological target: T2, human PD-1 extracellular domain protein …; experiment: ELISA; pH 5.5, 40°C 5 days
[13] = biological target: T2, human PD-1 extracellular domain protein …; experiment: ELISA, EC50 of bispecific over EC50 of the monoclonal control
Protocol: After washing the microplate 5 times with PBST, 50 μl/well TMB chromogenic substrate (KPL, 52-00-03) was added to the microplate, followed by incubating at room temperature for 10-15 min.
PD-1 expressed in Example 1 was diluted to a concentration of 1 μg/ml with PBS buffer, pH 7.4, and added to a 96-well microplate (Corning, CLS3590-100EA) at 50 μl per well, thereby incubating in an incubator at 37° C. for 2 hours. After discarding the liquid, a blocking solution of 5% skimmed milk (Shanghai Shenggong Biological Engineering Co., Ltd., A600669-0250) diluted with PBS was added at 200 μl per well, followed by incubating at 37° C. for 3 hours or 4° C. overnight (16-18 hours)) for blocking. Subsequently, the blocking solution was discarded, and the microplate was washed 5 times with PBST buffer (pH 7.4 PBS containing 0.05% tween-20). […] Subsequently, the microplate was washed 5 times with PBST, then 50 μl/well of 1:2500 diluted HRP-labeled secondary antibody (Jackson Immuno Research, 115-035-003) was added, thereby incubating at 37° C. for 1 hour. After washing the microplate 5 times with PBST, 50 μl/well TMB chromogenic substrate (KPL, 52-00-03) was added, then incubated at room temperature for 5-10 min. Finally, 50 μl/well of 1M H₂SO₄ was added to stop the reaction. […] Go microplate reader (ThermoFisher, 51119200) was used to read the absorption value at 450 nm and the EC50 based on the OD value was calculated.

[14] = biological target: T1, human TIM-3 extracellular domain-human …; experiment: ELISA; pH 5.5, 37°C 10 days
[15] = biological target: T2, human PD-1 extracellular domain protein …; experiment: ELISA; pH 5.5, 37°C 10 days
[16] = biological target: T1, human TIM-3 extracellular domain-human …; experiment: ELISA; pH 6.0, 0 day, against 0 day
[17] = biological target: T2, human PD-1 extracellular domain protein …; experiment: ELISA; pH 6.0, 0 day, against 0 day
[18] = biological target: T1, human TIM-3 extracellular domain-human …; experiment: ELISA; 40°C 0 day, against 0 day
[19] = biological target: T2, human PD-1 extracellular domain protein …; experiment: ELISA; 40°C 0 day, against 0 day
[20] = biological target: T1, human TIM-3 extracellular domain-human …; experiment: ELISA; preparation buffer, 37°C 14 days, against 0 day
[21] = biological target: T2, human PD-1 extracellular domain protein …; experiment: as above

- Fold change of EC50 [1]: 0.85 ratio
- Fold change of EC50 [2]: 1.1 ratio
- Fold change of EC50 [3]: 1.06 ratio
- Fold change of EC50 [4]: 0.89 ratio
- Fold change of EC50 [5]: 1 ratio
- Fold change of EC50 [6]: 1 ratio
- EC50 [7]: 303 pM
- EC50 [8]: 378 pM
- Fold change of EC50 [9]: 1 ratio
- Fold change of EC50 [10]: 1 ratio
- EC50 [11]: 341 pM
- EC50 [12]: 200 pM
- Multiple of EC50 variation [13]: 1.32 ratio
- EC50 [14]: 307 pM
- EC50 [15]: 198 pM
- Fold change of EC50 [16]: 1 ratio
- Fold change of EC50 [17]: 1 ratio
- Fold change of EC50 [18]: 1 ratio
- Fold change of EC50 [19]: 1 ratio
- Fold change of EC50 [20]: 47.9 ratio
- Fold change of EC50 [21]: 1.18 ratio
B1: bispecific antibody LB141 (bispecific antibody, human IgG4 S228P, kappa)
light: EIVLTQSPATLSLSPGERATLSCRASKGVSTSGYSYLHWYQQKPGQAPRLLIYLASYLESGVPARFSGSGSGTDFTLTISSLEPEDFAVYYCQHSRDLPLTFGGGTKVEIKRTVAAPSVFIFPPSDEQLKSGTASVVCLLNNFYPREAKVQWKVDNALQSGNSQESVTEQDSKDSTYSLSSTLTLSKADYEKHKVYACEVTHQGLSSPVTKSFNRGEC
heavy: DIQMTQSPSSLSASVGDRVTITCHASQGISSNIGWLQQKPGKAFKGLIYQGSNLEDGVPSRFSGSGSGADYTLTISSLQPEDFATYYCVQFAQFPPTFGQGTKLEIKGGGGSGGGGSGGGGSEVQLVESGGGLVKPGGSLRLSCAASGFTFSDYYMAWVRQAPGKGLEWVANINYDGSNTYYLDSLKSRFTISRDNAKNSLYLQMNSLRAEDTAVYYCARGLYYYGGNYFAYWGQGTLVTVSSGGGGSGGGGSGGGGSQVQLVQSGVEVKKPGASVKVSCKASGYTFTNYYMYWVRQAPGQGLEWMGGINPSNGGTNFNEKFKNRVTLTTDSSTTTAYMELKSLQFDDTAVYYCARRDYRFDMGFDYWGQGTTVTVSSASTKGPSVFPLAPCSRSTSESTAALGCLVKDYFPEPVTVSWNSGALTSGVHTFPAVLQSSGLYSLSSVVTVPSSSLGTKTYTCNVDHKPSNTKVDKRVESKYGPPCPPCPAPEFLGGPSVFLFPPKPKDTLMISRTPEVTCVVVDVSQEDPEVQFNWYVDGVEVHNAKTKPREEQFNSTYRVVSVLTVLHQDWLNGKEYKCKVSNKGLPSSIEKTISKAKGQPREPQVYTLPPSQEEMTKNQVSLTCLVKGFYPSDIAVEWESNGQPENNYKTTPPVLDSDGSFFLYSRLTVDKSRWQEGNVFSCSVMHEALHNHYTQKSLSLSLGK
notes: ab6VL-(G4S)3-ab6VH-(G4S)3-PemVH-hIgG4 with PemVL-κ
